Data from patent US20170088605A1 (Novartis, published 2017).
Where a chain is given by its changes, count along the chain named. Like-named read-outs stand apart in the source and are kept apart here.

T1: BKV serotype I VLP (BK virus serotype I, UniProt P03088 1-362)
T1 chain: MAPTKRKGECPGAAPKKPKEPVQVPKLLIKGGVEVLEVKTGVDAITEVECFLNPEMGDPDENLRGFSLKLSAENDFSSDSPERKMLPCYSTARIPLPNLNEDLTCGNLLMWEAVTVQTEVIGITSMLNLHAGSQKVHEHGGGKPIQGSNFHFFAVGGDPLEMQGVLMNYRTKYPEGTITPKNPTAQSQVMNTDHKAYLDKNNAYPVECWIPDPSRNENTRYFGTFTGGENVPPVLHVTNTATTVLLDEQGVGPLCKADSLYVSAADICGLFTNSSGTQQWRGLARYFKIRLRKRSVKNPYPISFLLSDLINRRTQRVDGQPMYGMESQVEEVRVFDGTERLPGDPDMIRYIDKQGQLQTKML

T2: BKV serotype I infectious virus (VP1) (BK virus serotype I, UniProt P03088 1-362)
T2 sequence (looked up): T1 chain with D158E, T171S, E175D, I210V, T219A

B1: 2081-36-8 (antibody, V domains shown)
VH: QVQLQQSGAGLVRPGSSVKISCKTSGYAFSSYWMNWVKQRPGQGLEWIGQIYPGNGDTNYNGKFKGKATLTADKSSNTAYIQLNSLTSEDSAVYFCAREARQGYHYAMDYWGQGTSVTVSL
VL: EIVFTQSPTTMAAFPGEKITITCSASSMINSNYLHWYQQKPGFSPKVLIYRTSNLASGVPARFSGTGSGTSFSLTIGTMEAEDVATYYCQQGSNIFTFGSGTKLEIK
B2: EBB-C1975-A7 (antibody, V domains shown)
VH: QVQLVESGGGLVQPGGSLRLSCAASGFTVSRNYMSWVRQAPGKGLEWVSGIYSGGSTYYADSVKGRFTISRDYSKNTLSLQMNTLRVEDTAVYFCAREDEFWSGYSAGVDWGQGTLVTVSS
VL: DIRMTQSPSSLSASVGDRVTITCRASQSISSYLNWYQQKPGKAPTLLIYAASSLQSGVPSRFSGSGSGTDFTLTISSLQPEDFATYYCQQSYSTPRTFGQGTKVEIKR

Columns and labels:
BKV serotype I VLP = molecular target: T1, BKV serotype I VLP
[1] = molecular target: T2, BKV serotype I infectious virus (VP1); assay: cell-based or functional assay
[2] = molecular target: T3, BKV serotype I VP1 pentamer (BK virus serotype I, UniProt P03088 30-297); assay: SPR, antibody captured on Protein A
T3 construct: also called serotype I pentamers; BKV-VP1 serotype I pentameric protein

[3] = molecular target: BKV serotype III chimeric infectious virus (VP1 of isolate AS) (BK virus serotype III); assay: cell-based or functional assay
[4] = molecular target: BKV serotype IV chimeric infectious virus (VP1 of strain ITA-4) (BK virus serotype IV); assay: cell-based or functional assay
[5] = molecular target: T2, BKV serotype I infectious virus (VP1); assay: cell-based or functional assay; remark: listed apart in the source
[6] = molecular target: BKV serotype II chimeric infectious virus (VP1 of isolate SB) (BK virus serotype II); assay: cell-based or functional assay

| Binder | EC50 (read off the curve) (BKV serotype I VLP) | neutralization EC50 [1] | neutralization EC90 [1] | binding result [2] | neutralization EC50 [3] | neutralization EC90 [3] | neutralization EC50 [4] | neutralization EC90 [4] | neutralization EC50 [5] | neutralization EC90 [5] | neutralization EC50 [6] | neutralization EC90 [6] |
| --- | --- | --- | --- | --- | --- | --- | --- | --- | --- | --- | --- | --- |
| B1 | ~0.3 nM | 0.147 µg/mL | 0.909 µg/mL | – | – | – | – | – | – | – | – | – |
| B2 | – | – | – | no binding | > 100 µg/mL | > 100 µg/mL | 0.28 µg/mL | 7.79 µg/mL | 0.024 µg/mL | 5.15 µg/mL | 0.11 µg/mL | 14.2 µg/mL |
